From patent US20230038638A1, “COMPLEMENT FACTOR I-RELATED COMPOSITIONS AND METHODS” (published 2023)

What was measured:
human C4b (human) [1] = molecular target: T1, human C4b (human) (UniProt P0C0L4)
T1 sequence: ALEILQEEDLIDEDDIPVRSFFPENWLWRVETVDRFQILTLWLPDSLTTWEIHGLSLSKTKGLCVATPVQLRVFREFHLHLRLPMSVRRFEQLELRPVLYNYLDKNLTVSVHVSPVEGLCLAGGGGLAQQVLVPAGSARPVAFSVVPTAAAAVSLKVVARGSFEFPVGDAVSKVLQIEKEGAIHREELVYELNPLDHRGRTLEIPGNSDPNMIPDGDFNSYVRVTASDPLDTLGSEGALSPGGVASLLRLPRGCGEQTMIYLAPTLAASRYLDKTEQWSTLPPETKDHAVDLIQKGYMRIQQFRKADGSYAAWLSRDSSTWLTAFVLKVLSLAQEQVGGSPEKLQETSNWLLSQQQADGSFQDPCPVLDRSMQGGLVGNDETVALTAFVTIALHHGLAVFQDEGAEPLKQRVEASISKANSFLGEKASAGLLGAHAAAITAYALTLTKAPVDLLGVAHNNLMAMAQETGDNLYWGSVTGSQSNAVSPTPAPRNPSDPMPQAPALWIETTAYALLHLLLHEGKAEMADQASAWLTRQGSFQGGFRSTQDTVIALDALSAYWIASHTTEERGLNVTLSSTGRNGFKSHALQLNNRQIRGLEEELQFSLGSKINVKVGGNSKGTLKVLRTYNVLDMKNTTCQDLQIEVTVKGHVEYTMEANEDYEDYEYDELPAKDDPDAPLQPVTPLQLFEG

[2] = molecular target: soluble human C3b (human) (UniProt P01024)
human C4b (human) [3] = molecular target: T1, human C4b (human); remark: listed apart in the source
[4] = molecular target: soluble human C3b (human) (UniProt P01024); remark: listed apart in the source

Question: With CFI-HSA variant E457Q (enzyme) as the substance, how does the C4c EC50 (nM) (human C4b (human) [1]) read?
Answer: 395 nM

Question: What about the iC3b EC50 [2] of the same substance?
Answer: 0.0198 µM

Question: What about the C4b Screen Ref Fold (fold of reference) (human C4b (human) [3]) of the same substance?
Answer: 1.8

Question: What about the iC3b Screen Ref Fold (fold of reference) [4] of the same substance?
Answer: 1

Question: Which results are given for CFI-HSA variant G406R (enzyme)?
Answer: C4c EC50 (nM) (human C4b (human) [1]): 474 nM; iC3b EC50 [2]: 0.019 µM; C4b Screen Ref Fold (fold of reference) (human C4b (human) [3]): 1.31; iC3b Screen Ref Fold (fold of reference) [4]: 1.31

Question: For CFI-HSA variant G406M (enzyme), which C4c EC50 (human C4b (human) [1]) is on record?
Answer: > 1 µM

Question: And the iC3b EC50 [2]?
Answer: 0.0405 µM

Question: And the C4b Screen Ref Fold (fold of reference) (human C4b (human) [3])?
Answer: 1.17

Question: What about the iC3b Screen Ref Fold (fold of reference) [4] of the same substance?
Answer: 0.6

Question: How did the C4c EC50 (nM) (human C4b (human) [1]) turn out when CFI-HSA variant G406E (enzyme) was run?
Answer: > 1000 nM

Question: And the iC3b EC50 [2]?
Answer: 0.116 µM

Question: What about the C4b Screen Ref Fold (fold of reference) (human C4b (human) [3]) of the same substance?
Answer: 0.88

Question: And the iC3b Screen Ref Fold (fold of reference) [4]?
Answer: 0.13

Question: With CFI-HSA variant T377G (enzyme) as the substance, how does the C4c EC50 (nM) (human C4b (human) [1]) read?
Answer: 147 nM

Question: And the iC3b EC50 [2]?
Answer: 0.0164 µM

Question: What about the C4b Screen Ref Fold (fold of reference) (human C4b (human) [3]) of the same substance?
Answer: 6.1

Question: And the iC3b Screen Ref Fold (fold of reference) [4]?
Answer: 1.01

Question: With CFI-HSA variant K504N (enzyme) as the substance, how does the C4c EC50 (nM) (human C4b (human) [1]) read?
Answer: > 1000 nM

Question: And the iC3b EC50 [2]?
Answer: 0.0768 µM

Question: And the C4b Screen Ref Fold (fold of reference) (human C4b (human) [3])?
Answer: 0.57

Question: And the iC3b Screen Ref Fold (fold of reference) [4]?
Answer: 0.18

Question: Which results are given for CFI-HSA variant T377G; K504H (enzyme)?
Answer: C4c EC50 (nM) (human C4b (human) [1]): 50.1 nM; iC3b EC50 [2]: 0.0157 µM; C4b Screen Ref Fold (fold of CFI-HSA wild type) (human C4b (human) [3]): 3.01; iC3b Screen Ref Fold (fold of CFI-HSA wild type) [4]: 0.95

Question: Which results are given for CFI-HSA variant D425G (enzyme)?
Answer: C4c EC50 (human C4b (human) [1]): > 1 µM; iC3b EC50 [2]: 0.0135 µM; C4b Screen Ref Fold (fold of reference) (human C4b (human) [3]): 2.18; iC3b Screen Ref Fold (fold of reference) [4]: 0.7

Question: With CFI-HSA variant R456N (enzyme) as the substance, how does the C4c EC50 (nM) (human C4b (human) [1]) read?
Answer: 920 nM

Question: And the iC3b EC50 [2]?
Answer: 0.0605 µM

Question: What about the C4b Screen Ref Fold (fold of reference) (human C4b (human) [3]) of the same substance?
Answer: 0.19

Question: What about the iC3b Screen Ref Fold (fold of reference) [4] of the same substance?
Answer: 0.56

Question: For CFI-HSA variant G406Y (enzyme), which C4c EC50 (human C4b (human) [1]) is on record?
Answer: > 1 µM

Question: And the iC3b EC50 [2]?
Answer: 0.0149 µM

Question: And the C4b Screen Ref Fold (fold of reference) (human C4b (human) [3])?
Answer: 0.43

Question: What about the iC3b Screen Ref Fold (fold of reference) [4] of the same substance?
Answer: 0.39

Question: With CFI-HSA variant K418G; D425G (enzyme) as the substance, how does the C4c EC50 (human C4b (human) [1]) read?
Answer: 0.865 µM

Question: What about the iC3b EC50 [2] of the same substance?
Answer: 0.0285 µM

Question: What about the C4b Screen Ref Fold (fold of reference) (human C4b (human) [3]) of the same substance?
Answer: 0.84

Question: What about the iC3b Screen Ref Fold (fold of reference) [4] of the same substance?
Answer: 0.19

Question: Which C4c EC50 (human C4b (human) [1]) does the source give for CFI-HSA variant G406V (enzyme) here?
Answer: > 1 µM

Question: And the iC3b EC50 [2]?
Answer: 0.0431 µM

Question: And the C4b Screen Ref Fold (fold of reference) (human C4b (human) [3])?
Answer: 1.09

Question: And the iC3b Screen Ref Fold (fold of reference) [4]?
Answer: 0.44

Question: Which C4c EC50 (human C4b (human) [1]) does the source give for CFI-HSA variant W381G (enzyme) here?
Answer: > 1 µM

Question: What about the iC3b EC50 [2] of the same substance?
Answer: > 0.5 µM

Question: What about the C4b Screen Ref Fold (fold of reference) (human C4b (human) [3]) of the same substance?
Answer: 0.32

Question: And the iC3b Screen Ref Fold (fold of reference) [4]?
Answer: 0

Question: CFI-HSA variant E457V (enzyme) was tested. Which C4c EC50 (nM) (human C4b (human) [1]) did it give?
Answer: 567 nM

Question: What about the iC3b EC50 [2] of the same substance?
Answer: 0.0406 µM

Question: And the C4b Screen Ref Fold (fold of reference) (human C4b (human) [3])?
Answer: 0.99

Question: And the iC3b Screen Ref Fold (fold of reference) [4]?
Answer: 0.8

Question: With CFI-HSA variant G406H (enzyme) as the substance, how does the C4c EC50 (human C4b (human) [1]) read?
Answer: 0.197 µM

Question: What about the iC3b EC50 [2] of the same substance?
Answer: 0.0204 µM

Question: And the C4b Screen Ref Fold (fold of reference) (human C4b (human) [3])?
Answer: 1.17

Question: And the iC3b Screen Ref Fold (fold of reference) [4]?
Answer: 0.6

Question: How did the C4c EC50 (nM) (human C4b (human) [1]) turn out when “CFI-HSA variant T377G; E457G; E461Q; F464Y; N531G (enzyme)” was run?
Answer: 23.3 nM

Question: And the iC3b EC50 [2]?
Answer: 0.0034 µM

Question: And the C4b Screen Ref Fold (fold of CFI-HSA wild type) (human C4b (human) [3])?
Answer: 4.08

Question: What about the iC3b Screen Ref Fold (fold of CFI-HSA wild type) [4] of the same substance?
Answer: 2.12

Question: CFI-HSA variant N531M (enzyme) was tested. Which C4c EC50 (nM) (human C4b (human) [1]) did it give?
Answer: 99.8 nM

Question: And the iC3b EC50 [2]?
Answer: 0.0212 µM

Question: And the C4b Screen Ref Fold (fold of reference) (human C4b (human) [3])?
Answer: 2.48

Question: What about the iC3b Screen Ref Fold (fold of reference) [4] of the same substance?
Answer: 0

Question: CFI-HSA variant D341A (enzyme) was tested. Which C4c EC50 (nM) (human C4b (human) [1]) did it give?
Answer: > 1000 nM

Question: And the iC3b EC50 [2]?
Answer: 0.0572 µM

Question: And the C4b Screen Ref Fold (fold of reference) (human C4b (human) [3])?
Answer: 0.19

Question: What about the iC3b Screen Ref Fold (fold of reference) [4] of the same substance?
Answer: 0.26

Question: With “CFI-HSA variant E416A; E457G; E461Q; N531G (enzyme)” as the substance, how does the C4c EC50 (nM) (human C4b (human) [1]) read?
Answer: 26.1 nM

Question: And the iC3b EC50 [2]?
Answer: 0.0042 µM

Question: And the C4b Screen Ref Fold (fold of CFI-HSA wild type) (human C4b (human) [3])?
Answer: 4.01

Question: What about the iC3b Screen Ref Fold (fold of CFI-HSA wild type) [4] of the same substance?
Answer: 1.69

Question: “CFI-HSA variant T377G; E416A; K504H (enzyme)” was tested. Which C4c EC50 (nM) (human C4b (human) [1]) did it give?
Answer: 47.8 nM

Question: What about the iC3b EC50 [2] of the same substance?
Answer: 0.012 µM

Question: And the C4b Screen Ref Fold (fold of CFI-HSA wild type) (human C4b (human) [3])?
Answer: 3.37

Question: And the iC3b Screen Ref Fold (fold of CFI-HSA wild type) [4]?
Answer: 0.77

Question: How did the C4c EC50 (nM) (human C4b (human) [1]) turn out when CFI-HSA variant D420G (enzyme) was run?
Answer: 63.6 nM

Question: What about the iC3b EC50 [2] of the same substance?
Answer: 0.007 µM

Question: And the C4b Screen Ref Fold (fold of CFI-HSA wild type) (human C4b (human) [3])?
Answer: 2.71

Question: What about the iC3b Screen Ref Fold (fold of CFI-HSA wild type) [4] of the same substance?
Answer: 2.53

Question: How did the C4c EC50 (nM) (human C4b (human) [1]) turn out when CFI-HSA variant E457L (enzyme) was run?
Answer: > 1000 nM

Question: What about the iC3b EC50 [2] of the same substance?
Answer: 0.0514 µM

Question: What about the C4b Screen Ref Fold (fold of reference) (human C4b (human) [3]) of the same substance?
Answer: 0.14

Question: And the iC3b Screen Ref Fold (fold of reference) [4]?
Answer: 0.21

Question: Which C4c EC50 (nM) (human C4b (human) [1]) does the source give for CFI-HSA variant Y408M (enzyme) here?
Answer: 930 nM

Question: And the iC3b EC50 [2]?
Answer: 0.0291 µM

Question: And the C4b Screen Ref Fold (fold of reference) (human C4b (human) [3])?
Answer: 0.17

Question: And the iC3b Screen Ref Fold (fold of reference) [4]?
Answer: 1.21

Question: How did the C4c EC50 (nM) (human C4b (human) [1]) turn out when “CFI-HSA variant K504R; E530F; E457G; E461Q; N531G (enzyme)” was run?
Answer: 16.2 nM

Question: And the iC3b EC50 [2]?
Answer: 0.0046 µM

Question: What about the C4b Screen Ref Fold (fold of CFI-HSA wild type) (human C4b (human) [3]) of the same substance?
Answer: 3.91

Question: And the iC3b Screen Ref Fold (fold of CFI-HSA wild type) [4]?
Answer: 1.8
